T1: annexin V, P08758
T1 chain: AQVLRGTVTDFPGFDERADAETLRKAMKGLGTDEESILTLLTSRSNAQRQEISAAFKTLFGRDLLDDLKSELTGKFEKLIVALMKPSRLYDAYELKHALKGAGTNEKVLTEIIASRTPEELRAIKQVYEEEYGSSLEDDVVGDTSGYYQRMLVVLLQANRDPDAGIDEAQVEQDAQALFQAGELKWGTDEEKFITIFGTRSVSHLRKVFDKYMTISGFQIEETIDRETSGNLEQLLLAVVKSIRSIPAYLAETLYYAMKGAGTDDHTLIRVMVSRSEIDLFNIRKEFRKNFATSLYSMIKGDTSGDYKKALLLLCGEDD


Key:
[1] = molecular target: FITC-labeled, dephosphorylated casein
annexin V, P08758 = molecular target: T1, annexin V, P08758
[2] = molecular target: kidney membrane associated proteins

| Protein | proteolytic activity, fluorescence at 535 nm of Dcasein-FITC [1] | cleavage in human kidney cytoplasmic extract, 2-dimensional gel electrophoresis (annexin V, P08758) | cleavage in human kidney membrane extract, 2-dimensional gel electrophoresis [2] | proteolytic activity, SDS-PAGE with Coomassie Blue staining (β-casein) |
| --- | --- | --- | --- | --- |
| MBP-Omi-(134-458) (protein) AVPSPPPASPRSQYNFIADVVEKTAPAVVYIEILDRHPFLGREVPISNGSGFVVAADGLIVTNAHVVADRRRVRVRLLSGDTYEAVVTAVDPVADIATLRIQTKEPLPTLPLGRSADVRQGEFVVAMGSPFALQNTITSGIVSSAQRPARDLGLPQTNVEYIQTDAAIDFGNSGGPLVNLDGEVIGVNTMKVTAGISFAIPSDRLREFLHRGEKKNSSSGISGSQRRYIGVMMLTLSPSILAELQLREPSFPDVQHGVLIHKVILGSPAHRAGLRPGDVILAIGEQMVQNAEDVYEAVRTQSQLAVQIRRGRETLTLYVTPEVTE | there was a rapid increase in fluorescence for the first 20 min followed by a slower increase for the remaining 10 min of the assay | – | – | – |
| His-tagged Omi-(134-458) (protein) AVPSPPPASPRSQYNFIADVVEKTAPAVVYIEILDRHPFLGREVPISNGSGFVVAADGLIVTNAHVVADRRRVRVRLLSGDTYEAVVTAVDPVADIATLRIQTKEPLPTLPLGRSADVRQGEFVVAMGSPFALQNTITSGIVSSAQRPARDLGLPQTNVEYIQTDAAIDFGNSGGPLVNLDGEVIGVNTMKVTAGISFAIPSDRLREFLHRGEKKNSSSGISGSQRRYIGVMMLTLSPSILAELQLREPSFPDVQHGVLIHKVILGSPAHRAGLRPGDVILAIGEQMVQNAEDVYEAVRTQSQLAVQIRRGRETLTLYVTPEVTE | – | two polypeptides (32 kD and 29 kD) in the human kidney cytoplasmic fraction were specifically cleaved by His-Omi | No proteins were cleaved in the membrane bound fractions | had substantial activity against β-casein, and after 30 min total degradation of the substrate occurred |

Reference: US20040171629
